Laboratory results reported in patent publication US10967068B2, “Stability-modulating linkers for use with antibody drug conjugates” (priority 2014, dated 2021).
*1 amine or outer side, *2 acyl side, *3 side chain or, on linkers, in order; H or OH if unused. Where a SMILES comes first, the peptide text is derived from it. [ ]: non-standard residue; d: D form. The star is where a group is joined. Dolaproine = CO[C@@H]([C@@H]1CCCN1)[C@@H](C)C(=O)O; Dil = CC[C@H](C)[C@H](NC)[C@@H](CC(=O)O)OC; PABC = O=C(OCc1ccc(N[*:1])cc1)[*:2]; Doe = c1ccc(C[C@H](N*)c2nccs2)cc1; Cit = NC(=O)NCCC[C@H](N)C(=O)O; Me2Gly = CN(C)CC(=O)*; Aib = CC(C)(N)C(=O)O; CO = O=C([*:1])[*:2]; X2 = CC1(C(=O)*)COC1; Sar = CNCC(=O)O; Moc = COC(=O)*

Assay: In Vitro Stability Assay—Mouse Plasma
Assay type: in vitro ADME
Details: attachment position L11B; for Conjugate stability (%): % DAR remaining after plasma 3 or 4.5 days; for DAR: before plasma incubation

Row | SMILES | DAR after plasma incubation for 3 to 4.5 days | Conjugate stability (%) | DAR
1 | CC[C@H](C)[C@@H]([C@@H](CC(=O)N1CCC[C@H]1[C@H](OC)[C@@H](C)C(=O)N[C@@H](Cc1ccccc1)c1nccs1)OC)N(C)C(=O)[C@@H](NC(=O)C(C)(C)NC(=O)OCc1ccc(NC(=O)[C@H](CCCNC(N)=O)NC(=O)[C@@H](NC(=O)[C@H](CCCCN)NC(=O)NC)C(C)C)cc1)C(C)C [Example 26, N˜2˜-(methylcarbamoyl)-L-lysylvalyl-N-{4-[(8S,11S,12R)-11-[(2S)-butan-2-yl]-12-(2-{(2S)-2-[(1R,2R)-1-methoxy-2-methyl-3-oxo-3-{[(1S)-2-phenyl-1-(1,3-thiazol-2-yl)ethyl]amino}propyl]pyrrolidin-1-yl}-2-oxoethyl)-5,5,10-trimethyl-3,6,9-trioxo-8-(propan-2-yl)-2,13-dioxa-4,7,10-triazatetradec-1-yl]phenyl}-N˜5˜-carbamoyl-L-ornithinamide] ({NHMe-CO}-KV[Cit][PABC][Aib]V[Dil][Dolaproine]-Doe) | 1.16 | 60% | 1.92
2 | CC[C@H](C)[C@@H]([C@@H](CC(=O)N1CCC[C@H]1[C@H](OC)[C@@H](C)C(=O)N[C@@H](Cc1ccccc1)c1nccs1)OC)N(C)C(=O)[C@@H](NC(=O)C(C)(C)NC(=O)OCc1ccc(NC(=O)[C@H](CCCNC(N)=O)NC(=O)[C@@H](NC(=O)[C@H](CCCCN)NC(=O)CNC)C(C)C)cc1)C(C)C [Example 27, N-methylglycyl-L-lysylvalyl-N-{4-[(8S,11S,12R)-11-[(2S)-butan-2-yl]-12-(2-{(2S)-2-[(1R,2R)-1-methoxy-2-methyl-3-oxo-3-{[(1S)-2-phenyl-1-(1,3-thiazol-2-yl)ethyl]amino}propyl]pyrrolidin-1-yl}-2-oxoethyl)-5,5,10-trimethyl-3,6,9-trioxo-8-(propan-2-yl)-2,13-dioxa-4,7,10-triazatetradec-1-yl]phenyl}-N˜5˜-carbamoyl-L-ornithinamide] (H-[Sar]KV[Cit][PABC][Aib]V[Dil][Dolaproine]-Doe) | 0.98 | 57% | 1.72
3 | CC[C@H](C)[C@@H]([C@@H](CC(=O)N1CCC[C@H]1[C@H](OC)[C@@H](C)C(=O)N[C@@H](Cc1ccccc1)c1nccs1)OC)N(C)C(=O)[C@@H](NC(=O)C(C)(C)NC(=O)OCc1ccc(NC(=O)[C@H](CCCNC(N)=O)NC(=O)[C@@H](NC(=O)[C@H](CCCCN)NC(=O)CN(C)C)C(C)C)cc1)C(C)C [Example 28, N,N-dimethylglycyl-L-lysylvalyl-N-{4-[(8S,11S,12R)-11-[(2S)-butan-2-yl]-12-(2-{(2S)-2-[(1R,2R)-1-methoxy-2-methyl-3-oxo-3-{[(1S)-2-phenyl-1-(1,3-thiazol-2-yl)ethyl]amino}propyl]pyrrolidin-1-yl}-2-oxoethyl)-5,5,10-trimethyl-3,6,9-trioxo-8-(propan-2-yl)-2,13-dioxa-4,7,10-triazatetradec-1-yl]phenyl}-N˜5˜-carbamoyl-L-ornithinamide] (Me2Gly-KV[Cit][PABC][Aib]V[Dil][Dolaproine]-Doe) | 0.07 | 4% | 1.83
4 | CC[C@H](C)[C@@H]([C@@H](CC(=O)N1CCC[C@H]1[C@H](OC)[C@@H](C)C(=O)N[C@@H](Cc1ccccc1)c1nccs1)OC)N(C)C(=O)[C@@H](NC(=O)C(C)(C)NC(=O)OCc1ccc(NC(=O)[C@H](CCCNC(N)=O)NC(=O)[C@@H](NC(=O)[C@H](CCCCN)NC(=O)CN)C(C)C)cc1)C(C)C [Example 29, glycyl-L-lysylvalyl-N-{4-[(8S,11S,12R)-11-[(2S)-butan-2-yl]-12-(2-{(2S)-2-[(1R,2R)-1-methoxy-2-methyl-3-oxo-3-{[(1S)-2-phenyl-1-(1,3-thiazol-2-yl)ethyl]amino}propyl]pyrrolidin-1-yl}-2-oxoethyl)-5,5,10-trimethyl-3,6,9-trioxo-8-(propan-2-yl)-2,13-dioxa-4,7,10-triazatetradec-1-yl]phenyl}-N˜5˜-carbamoyl-L-ornithinamide] (H-GKV[Cit][PABC][Aib]V[Dil][Dolaproine]-Doe) | 1.46 | 81% | 1.80
5 | CC[C@H](C)[C@@H]([C@@H](CC(=O)N1CCC[C@H]1[C@H](OC)[C@@H](C)C(=O)N[C@@H](Cc1ccccc1)c1nccs1)OC)N(C)C(=O)[C@@H](NC(=O)C(C)(C)NC(=O)OCc1ccc(NC(=O)[C@H](CCCNC(N)=O)NC(=O)[C@@H](NC(=O)[C@H](CCCCN)NC(=O)C2(C)COC2)C(C)C)cc1)C(C)C [Example 30, N˜2˜-[(3-methyloxetan-3-yl)carbonyl]-L-lysyl-L-valyl-N-{4-[(8S,11S,12R)-11-[(2S)-butan-2-yl]-12-(2-{(2S)-2-[(1R,2R)-1-methoxy-2-methyl-3-oxo-3-{[(1S)-2-phenyl-1-(1,3-thiazol-2-yl)ethyl]amino}propyl]pyrrolidin-1-yl}-2-oxoethyl)-5,5,10-trimethyl-3,6,9-trioxo-8-(propan-2-yl)-2,13-dioxa-4,7,10-triazatetradec-1-yl]phenyl}-N˜5˜-carbamoyl-L-ornithinamide] (X2-KV[Cit][PABC][Aib]V[Dil][Dolaproine]-Doe) | 0.06 | 5% | 1.27
6 | CC[C@H](C)[C@@H]([C@@H](CC(=O)N1CCC[C@H]1[C@H](OC)[C@@H](C)C(=O)N[C@@H](Cc1ccccc1)c1nccs1)OC)N(C)C(=O)[C@@H](NC(=O)C(C)(C)NC(=O)OCc1ccc(NC(=O)[C@H](CCCNC(N)=O)NC(=O)[C@@H](NC(=O)[C@H](CCCCN)NC(=O)C(C)(C)N)C(C)C)cc1)C(C)C [Example 31, 2-methylalanyl-L-lysylvalyl-N-{4-[(8S,11S,12R)-11-[(2S)-butan-2-yl]-12-(2-{(2S)-2-[(1R,2R)-1-methoxy-2-methyl-3-oxo-3-{[(1S)-2-phenyl-1-(1,3-thiazol-2-yl)ethyl]amino}propyl]pyrrolidin-1-yl}-2-oxoethyl)-5,5,10-trimethyl-3,6,9-trioxo-8-(propan-2-yl)-2,13-dioxa-4,7,10-triazatetradec-1-yl]phenyl}-N˜5˜-carbamoyl-L-ornithinamide] (H-[Aib]KV[Cit][PABC][Aib]V[Dil][Dolaproine]-Doe) | 0.03 | 2% | 1.77
7 | CC[C@H](C)[C@@H]([C@@H](CC(=O)N1CCC[C@H]1[C@H](OC)[C@@H](C)C(=O)N[C@@H](Cc1ccccc1)c1nccs1)OC)N(C)C(=O)[C@@H](NC(=O)C(C)(C)NC(=O)OCc1ccc(NC(=O)[C@H](CCCNC(N)=O)NC(=O)[C@@H](NC(=O)[C@H](CCCCN)NC(=O)OC)C(C)C)cc1)C(C)C [Example 32, N˜2˜-(methoxycarbonyl)-L-lysylvalyl-N-{4-[(8S,11S,12R)-11-[(2S)-butan-2-yl]-12-(2-{(2S)-2-[(1R,2R)-1-methoxy-2-methyl-3-oxo-3-{[(1S)-2-phenyl-1-(1,3-thiazol-2-yl)ethyl]amino}propyl]pyrrolidin-1-yl}-2-oxoethyl)-5,5,10-trimethyl-3,6,9-trioxo-8-(propan-2-yl)-2,13-dioxa-4,7,10-triazatetradec-1-yl]phenyl}-N˜5˜-carbamoyl-L-ornithinamide] (Moc-KV[Cit][PABC][Aib]V[Dil][Dolaproine]-Doe) | 0.08 | 5% | 1.53
8 | CC[C@H](C)[C@@H]([C@@H](CC(=O)N1CCC[C@H]1[C@H](OC)[C@@H](C)C(=O)N[C@@H](Cc1ccccc1)c1nccs1)OC)N(C)C(=O)[C@@H](NC(=O)C(C)(C)NC(=O)OCc1ccc(NC(=O)[C@H](CCCNC(N)=O)NC(=O)[C@@H](NC(=O)[C@@H](N)CCCCN)C(C)C)cc1)C(C)C [Example 33, L-lysylvalyl-N-{4-[(8S,11S,12R)-11-[(2S)-butan-2-yl]-12-(2-{(2S)-2-[(1R,2R)-1-methoxy-2-methyl-3-oxo-3-{[(1S)-2-phenyl-1-(1,3-thiazol-2-yl)ethyl]amino}propyl]pyrrolidin-1-yl}-2-oxoethyl)-5,5,10-trimethyl-3,6,9-trioxo-8-(propan-2-yl)-2,13-dioxa-4,7,10-triazatetradec-1-yl]phenyl}-N˜5˜-carbamoyl-L-ornithinamide] (H-KV[Cit][PABC][Aib]V[Dil][Dolaproine]-Doe) | 0.52 | 34% | 1.53
9 | CC[C@H](C)[C@@H]([C@@H](CC(=O)N1CCC[C@H]1[C@H](OC)[C@@H](C)C(=O)N[C@@H](Cc1ccccc1)c1nccs1)OC)N(C)C(=O)[C@@H](NC(=O)C(C)(C)NC(=O)OCc1ccc(NC(=O)[C@H](CCCNC(N)=O)NC(=O)[C@@H](NC(=O)[C@H](CCCCN)NC(=O)[C@H](C)N)C(C)C)cc1)C(C)C [Example 34, L-alanyl-L-lysylvalyl-N-{4-[(8S,11S,12R)-11-[(2S)-butan-2-yl]-12-(2-{(2S)-2-[(1R,2R)-1-methoxy-2-methyl-3-oxo-3-{[(1S)-2-phenyl-1-(1,3-thiazol-2-yl)ethyl]amino}propyl]pyrrolidin-1-yl}-2-oxoethyl)-5,5,10-trimethyl-3,6,9-trioxo-8-(propan-2-yl)-2,13-dioxa-4,7,10-triazatetradec-1-yl]phenyl}-N˜5˜-carbamoyl-L-ornithinamide] (H-AKV[Cit][PABC][Aib]V[Dil][Dolaproine]-Doe) | 0.86 | 50% | 1.72
